Test: yeast display, Sf9 membrane polyspecificity reagent, FACS + sequencing; frameworks hold sequencing errors
In short: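 Using colony PCR, genes from sorted yeast display clones were amplified, then sequenced on MiSeq at 2 × 250 and filtered by CDR length. The clones had been stained with 10% biotinylated, detergent-solubilized Sf9 membrane reagent for 1 hour at 4 °C and sorted by FACS into low and high (top ~1%) gates on anti-HA and streptavidin fluorescence. Polyreactivity labels come from the gate of origin.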

Sequence	polyreactivity (PSR sort gate)
QVQLVESGGGLVQAGGSLRLICAASGSIFVGNAMGWYRQAPGKERELVAAITSSGGRTYYADSVKGRFTISRDNAKNTVYLQMNSLKPEDTAVYYCNTSRTRRFSLWAYDYWGQGTQVTVSS	high polyreactivity
QVQLVESGGGLVQAGGSLRLICAASGSIFVIYAMGWYRQAPGKERELVAAITSGGNTTYADSVKGRFTISRDNAKNTVSLQMNSLKPEDTAVYYCSADYPWEYDYWGQGTQVTVSS	low polyreactivity
QVQLVESGGGLVQAGGSLRLICAASGSIFYFYAMGWYREAPGKERELVAAIRYNGGSTYYADSVKGRFTISRDNAKNTVYLQMNSLKPEDTAVYYCAAGGFHYVYYRGMYYWGQGTQVTVSS	high polyreactivity
QVQLVESGGGLVQAGGSLRLICAASGSIFYGYAMGWYRPAPGKERELVAAISYSGDRTYYADSVKGRFTISRDNAKNSVYLQMNSLKPEDTAVYYCAAQRRYGDDYWGQGTQVTVSS	high polyreactivity
QVQLVESGGGLVQAGGSLRLICAASGSIFYRYTMGWYRQAPGKERELVAAISSRGGSTYYADSVKGRFTISRDNAKNTVYLQMNSLKPEYTAVYYCAARFSYWAPSKGYGYWGQGTQVTVSS	high polyreactivity
QVQLVESGGGLVQAGGSLRLICAASGSKFSSYCMGWYRQATGQEMELVAAISKRGGSTYYADTVKGRFTISRDNAKNTVYLQMNSLKPEDTAVYYCAAAVSIQGYSTLFDYWGQGTQVTVSS	high polyreactivity
QVQLVESGGGLVQAGGSLRLICAASGSNFGSNAMGWYRQAPGKETEFVAVITWRVGVTYYADSVKGRFTISRDNAKNTVYLQMNSLKPEDTAVYYCNVDWKVYGAPDYRIAWKYDYWGQGTQVTVSS	low polyreactivity
QVQLVESGGGLVQAGGSLRLICAASGSTFDGYAMGWYRQAPGKERELVAAISKNGVRTYYADSVKGRFTISRDNAKNTVYLLMNSLKPEDTAVYYCAKDIIKYDYDYWGQGTQVTVSS	low polyreactivity
QVQLVESGGGLVQAGGSLRLICAASGSTFEYYAMGWYRPAPGKERELVAAINGIGGSTTYADSVKGRFTISRDNAKNTVYLQMNSLKPEDSAVYYCNADVARSKSQASAYDYWGQGTQVTVSS	low polyreactivity
QVQLVESGGGLVQAGGSLRLICAASGSTFFYNAMGWYRQAPGKEREFVAAIRWRGGSTYYADSVKGRFTISRDNAKNTVYLQMNSLKPEDTAVYYCAAVYYRWEYDYWGQGTQVTVSS	high polyreactivity
QVQLVESGGGLVQAGGSLRLICAASGSTFGAYAMGWYRQAPGKERELVAAISRSGGTTYYADSVKGRFTISRDNSKNTVYLQMNSLKPEDTEVYYCAADWLNSVPYNYWGQGTLVTVSS	low polyreactivity
QVQLVESGGGLVQAGGSLRLICAASGSTFGPNAMGWYRQAPGKEREFVASISWRGGRTYYADSVKGRFTISRDNAKNSVYLQMYCLKPEDTAVSYCAAVSYPAVYGFDYWGQGTQVTVSS	high polyreactivity
QVQLVESGGGLVQAGGSLRLICAASGSTFIKYTMGWYRPAPGKERELVAAISRIGGSTYYADSVKGRFTISRDNAKNTVYLQMNSLKPEDTAVYYCAAPYPIGHDWGQGTQVTVSS	low polyreactivity
QVQLVESGGGLVQAGGSLRLICAASGSTFLKYTMVWYRQAPWKERELVAAISKSGGSTYYADSVKGRFTISRDHAKNTVYLQMNSLKPEDTAVYYCAKVRSWVSSYGYGYWGQGTQVTVSS	high polyreactivity
QVQLVESGGGLVQAGGSLRLICAASGSTFLSNAMGWYRQATGKERELVAAITTSGTSTFYSDSVKGRFTISRDNAKNTVYLQMNSMKPEDTAVYYCAADSAHRYIPVQGYDYWGQGTQVTVSS	low polyreactivity
QVQLVESGGGLVQAGGSLRLICAASGSTFNDYVMGWYRQAPGKERELVAAISRSGGSTYYADSVKGRITISRDNAKNTVYLQMNSLKPEDTAVYYCAAASPGPWRYDYWGQGTQVTVSS	high polyreactivity
QVQLVESGGGLVQAGGSLRLICAASGSTFPGYAMGWYRQAPGKERELVATITRRGGSTYYADSVKGRFTISRDNAKNTVYLQMNSLKPEDTAVYYCNAVDYTVWLFPYDTGVDYWGQGTQVTVSS	low polyreactivity
QVQLVESGGGLVQAGGSLRLICAASGSTFSDNAMGWYRPAPGKERELVAAISRSGGSTYYADSVKGRFTLSRDNANNTVYLQMNSLKPEDTAFYYGATKSVLTGYDSWGQGTKVTVSS	high polyreactivity
QVQLVESGGGLVQAGGSLRLICAASGSTFTPNDMGWYRQAPGKERELVADISNYADSVKGRFTISRDNAKNTVYLQMNSLKPEDSAVYYCAAEWGGDRYGLYVVSWWYDYWGQGTQVTLSS	low polyreactivity
QVQLVESGGGLVQAGGSLRLICAASGSTFTPYAMGWYRQEPGKERELVAAIRGSGGRTYYADSVKGRFTISRDNAKNTVYLQMNSLKPEDTAVYYCAASWLYTGWGRYDYWGQGTQVTVSS	high polyreactivity
QVQLVESGGGLVQAGGSLRLICAASGSTFVEYAMGWYRQAPGKERELVATISYRGTRTYYADSVKGRFTISRDNAKNTVYLQMNSLKPEDTAVYYCAARSWFRTVEYDYWGKGTQVTVSS	high polyreactivity
QVQLVESGGGLVQAGGSLRLICAASGSTFWWYAMGWYRKAPGKEREFVAAIRWSSGSTYYADSVKGRFTISRDNAKNTVYLQMNSLKPEDTAVYYCATDDTSNVYVDLDYWGQGTQVTVSS	high polyreactivity
QVQLVESGGGLVQAGGSLRLICAASGSTFYHNVMGWYRQAPGKERELLASIYRGGSTYYADSVKGRFTISRDNAKNTVYVQMNSLKPEDTAVYYCAADLSSDSSYSGYDYSGQGTQVTVSS	low polyreactivity
QVQLVESGGGLVQAGGSLRLICAASGSTFYIYAMGWYRQAPGKERELGATISSTGSTHYADSVKGRFTISRDNAKNTVYLQMNSLKPEDTAVYYCNRVYFGRYSRRDHWGQGTQVTVSS	high polyreactivity
QVQLVESGGGLVQAGGSLRLICAASGSTFYSYTMGWYRPAPGKERELVARISSSGSTNYADSVKGRFTISRYNAKNTVYLQMNSLKPEDTAVYYCNKDWFYRGYDYWGQGTQVTVSS	high polyreactivity
QVQLVESGGGLVQAGGSLRLICAASGSTFYTYAMGWYRQAPGKEREFVAAIRWRGGSTYYADSVKGRFTISRDNSKNTVFLQMNSLKPEDTAVYYCAAVSPGTVTNGKSRDYWGQGTQVTVSS	high polyreactivity
QVQLVESGGGLVQAGGSLRLICAASGSTFYYYTRVWYRQAPGKERELVAAISYGGSSTYYADSVKGRFTISRDNAKNSVYLQMNSLKPEDTAVYYCAAEYDWSYWLSYDYWGQGTLVTVSS	low polyreactivity
QVQLVESGGGLVQAGGSLRLICAASGSTLKYYAMGWYRQAPGKERELVARITRSSGSTYYADSVKGRFTISRDNAKNTVYLQMNSLKPEDTAVYYCNAYGRFGLYDYWGQGTQVTVSS	high polyreactivity
QVQLVESGGGLVQAGGSLRLICAASGSTLVVNAMGWYRQAPGKERELVAAITSGGSTNYADSVKGRFTISRDNAKNTVYLQMNSLKPEDTAVYYCNAERGRSFWWAYDYWGQGTQVTVSS	low polyreactivity
QVQLVESGGGLVQAGGSLRLICAASGTIFDIYAMGWYRQAPGKERELVAAISLSAGSTYYADSVKGRFTISRDNAKNTVYLQMNSLKPEDTAGYYFNADGWYGYWGQGTQVTVSS	low polyreactivity

Reference: the nanobody polyreactivity screen of Harvey et al. (2022)
